Results from patent US20090010935A1.

Legend:
[1] = biological target: human epidermal growth factor receptor (EGFR), full-length wild type (human) (UniProt P00533); test: cell-based or functional assay
[2] = biological target: ΔEGFR, extracellular-deleted mutant human EGFR (EGFRvIII) (human) (UniProt P00533); test: cell-based or functional assay

With “N691 stop (cytoplasmic domain deleted rat cellular p185) (from UniProt P06494 23-690) (receptor)” the EGF-induced down-regulation of cell-surface EGFR in cells co-expressing EGFR and kinase deficient Neu (flow cytometry) [1] was 20 to 25%.

“T691 stop neu (ectodomain-derived, carboxyl-terminal deletion mutant of the rat p185neu oncogene) (from UniProt P06494 23-654) (receptor)” gave a phosphorylation content of immunoprecipitated p155 ΔEGFR monomers (mAb Δ124 immunoprecipitation, PY-20 blot, scanning densitometry) [2] of 33.7%, an inhibition of anchorage-independent growth by T691 stop neu in U87MG parental cells lacking ΔEGFR [1] of 75.2% and a radiation-induced apoptosis (DAPI), U87/T691 cells, 72 h after gamma-irradiation [1] of 20%. For the same substance, the radiation-induced apoptosis (DAPI), U87/T691 cells, prolonged serum deprivation combined with radiation [1] was 33%.

“wildtype rat cellular p185 (Nneu) (from UniProt P06494 23-1257) (receptor)” was tested, and the co-downregulation of cellular p185 with EGFR upon EGF treatment, M1 cells (flow cytometry) [1] was 20% and the half life of WT cellular p185 after EGF treatment (pulse-chase, densitometry) [1] was 3 h.

“N757 (Nneu K757M, ATP-binding site mutant of rat cellular p185) (from UniProt P06494 23-1257) (receptor)” was tested, and the EGF-induced down-regulation of cell-surface EGFR in cells co-expressing EGFR and kinase deficient Neu (flow cytometry) [1] was 20 to 25%.
